According to article PMC10244696, “Thioredoxin TRXo1 is involved in ABA perception via PYR1 redox regulation” (Redox Biology, 2023):
Residue numbers refer to the chain shown, from its start.

T1: PYR1 in Arabidopsis leaf extracts (Arabidopsis thaliana (endogenous in Col-0 leaves)), O49686
T1 chain: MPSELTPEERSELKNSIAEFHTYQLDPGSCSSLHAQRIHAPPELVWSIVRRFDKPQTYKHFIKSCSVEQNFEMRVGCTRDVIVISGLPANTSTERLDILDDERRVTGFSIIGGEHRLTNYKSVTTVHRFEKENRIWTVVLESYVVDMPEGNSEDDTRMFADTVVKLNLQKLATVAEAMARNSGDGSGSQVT

T2: recombinant HisAtPYR1 (Arabidopsis thaliana), O49686
T2 chain: T1 chain

B1: PYR1 in Arabidopsis leaf extracts, O49686 1-191 (receptor)
chain: T1 chain
B2: HisAtPYR1C30S (receptor, Arabidopsis thaliana, UniProt O49686 1-191, looked up)
chain: T1 chain with C30S
notes: PYR1 of Arabidopsis thaliana (At4g17870) with Cys30 replaced by Ser; cloned in NcoI/EcoRI of pETM11; source: E. coli BL21, purified (Ni-NTA agarose)
B3: HisAtPYR1C77S (receptor, Arabidopsis thaliana, UniProt O49686 1-191, looked up)
chain: T1 chain with C77S
notes: PYR1 of Arabidopsis thaliana (At4g17870) with Cys77 replaced by Ser; cloned in NcoI/EcoRI of pETM11; source: E. coli BL21, purified (Ni-NTA agarose)
B4: HisAtPYR1C65S (receptor, Arabidopsis thaliana, UniProt O49686 1-191, looked up)
chain: T1 chain with C65S
notes: PYR1 of Arabidopsis thaliana (At4g17870) with Cys65 replaced by Ser; cloned in NcoI/EcoRI of pETM11; source: E. coli BL21, purified (Ni-NTA agarose)
B5: recombinant HisAtPYR1, O49686 1-191 (receptor)
chain: T1 chain

Key:
[1] = target: T1, PYR1 in Arabidopsis leaf extracts …; experiment: non-reducing SDS-PAGE and Western blot of oligomeric forms; leaf extracts of Arabidopsis, anti-PYR1; wild type extract without blocking or alkylating agent, also with 50 mM DTT or 4 mM H2O2 added; WT, KO and OEX Attrxo1 plants with or without 10 μM ABA for 48 h (extracts with 5 mM NEM); details: remark: other sources report otherwise
[2] = target: the molecule itself; experiment: SDS-PAGE and Western blot of oligomeric forms; recombinant HisAtPYR1 or its Cys mutants in 20 mM Tris-HCl pH 7.9, untreated, with 4 mM H2O2, or 2 mM DTT and then 4 mM H2O2 (30 min, room temperature); 2.5 μg on SDS-PAGE, anti-AtPYR1
[3] = target: T2, recombinant HisAtPYR1 (Arabidopsis …); experiment: as above; details: remark: other sources report otherwise

Row | Binder | amount of dimers, fold of PYR1 [2] [fold] | further results
1 | B1 | – | stoichiometry N [1]: 2
2 | B2 | 0.3 | –
3 | B3 | 0.6 | –
4 | B4 | 2.3 | –
5 | B5 | – | stoichiometry N [3]: 2
